Test in all cases: ITC (calorimetric titration)
Holding throughout (conditions): chain shown with the change

For experiment [1], the target named is linear tetra-SUMO2 (4×SUMO2-ΔN11), P61956.
Experiment [2] deals with linear di-SUMO2 (2×SUMO2-ΔN11), P61956.
For another experiment, the target named is linear tri-SUMO, P61956.

A word on the Kd: it is the constant that tells how readily two partners part at equilibrium. Read a low Kd as a tighter complex.

Sequence of linear tri-SUMO, P61956 (P61956 other isoform, or with tags, fused parts or gaps): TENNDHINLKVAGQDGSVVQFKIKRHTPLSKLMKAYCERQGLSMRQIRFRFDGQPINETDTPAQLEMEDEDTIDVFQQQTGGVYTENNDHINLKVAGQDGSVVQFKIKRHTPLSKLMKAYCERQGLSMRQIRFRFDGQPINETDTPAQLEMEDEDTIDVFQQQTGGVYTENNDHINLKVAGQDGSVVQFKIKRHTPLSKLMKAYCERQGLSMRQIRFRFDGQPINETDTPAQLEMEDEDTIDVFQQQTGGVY
Sequence of linear tetra-SUMO2 (4×SUMO2-ΔN11), P61956 (P61956 other isoform, or with tags, fused parts or gaps mutant): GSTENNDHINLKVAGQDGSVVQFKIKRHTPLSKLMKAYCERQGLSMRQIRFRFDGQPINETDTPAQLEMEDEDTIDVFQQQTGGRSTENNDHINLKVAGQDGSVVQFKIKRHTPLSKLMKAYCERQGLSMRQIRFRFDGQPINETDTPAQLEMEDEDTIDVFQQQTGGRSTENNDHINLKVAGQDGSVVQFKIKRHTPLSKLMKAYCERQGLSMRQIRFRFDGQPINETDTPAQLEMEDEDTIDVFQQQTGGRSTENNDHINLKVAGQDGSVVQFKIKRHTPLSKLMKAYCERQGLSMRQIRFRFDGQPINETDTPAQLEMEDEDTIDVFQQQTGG
Sequence of linear di-SUMO2 (2×SUMO2-ΔN11), P61956 (P61956 other isoform, or with tags, fused parts or gaps mutant): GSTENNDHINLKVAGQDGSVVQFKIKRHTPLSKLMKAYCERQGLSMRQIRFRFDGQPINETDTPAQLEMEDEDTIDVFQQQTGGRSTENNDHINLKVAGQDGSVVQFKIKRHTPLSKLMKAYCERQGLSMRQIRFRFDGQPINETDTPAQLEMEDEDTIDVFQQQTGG

B1: RNF4 1–125 (RNF4-SIM domain, wt), P78317 SIM2mut (protein)
chain: MSTRKRRGGAINSRQAQKRTREATSTPEISLEAEPIELVETAGDEIAAAACESLEPVVVDLTHNDSVVIVDERRRPRRNARRLPQDHADSCVVSSDDEELSRDRDVYVTTHTPRNARDEGATGLR
As for B1, the Kd was found to be 2.1 µM in experiment [1]; 118 µM in experiment [2]; 25 µM with linear tri-SUMO, P61956.

B2: RNF4 1–125 (RNF4-SIM domain, wt), P78317 SIM1/2mut (protein)
chain: MSTRKRRGGAINSRQAQKRTREATSTPEISLEAEPAAAAETAGDEIAAAACESLEPVVVDLTHNDSVVIVDERRRPRRNARRLPQDHADSCVVSSDDEELSRDRDVYVTTHTPRNARDEGATGLR
B2 gave a Kd in experiment [2] of 56 µM.

B3: RNF4 1–125 (RNF4-SIM domain, wt), P78317 SIM3/4mut (protein)
chain: MSTRKRRGGAINSRQAQKRTREATSTPEISLEAEPIELVETAGDEIVDLTCESLEPVVAAAAHNDSAAAADERRRPRRNARRLPQDHADSCVVSSDDEELSRDRDVYVTTHTPRNARDEGATGLR
For the molecule B3, the figures for the dissociation constant Kd in experiment [1] and in experiment [2] were 22 µM and 69 µM, respectively.

B4: RNF4 1–125 (RNF4-SIM domain, wt), P78317 SIM4mut (protein)
chain: MSTRKRRGGAINSRQAQKRTREATSTPEISLEAEPIELVETAGDEIVDLTCESLEPVVVDLTHNDSAAAADERRRPRRNARRLPQDHADSCVVSSDDEELSRDRDVYVTTHTPRNARDEGATGLR
In the case of B4, the Kd in experiment [1] stood at 2.8 µM; with linear tri-SUMO, P61956 it was 20 µM.

B5: RNF4 1–125 (RNF4-SIM domain, wt), P78317 SIM2/4mut (protein)
chain: MSTRKRRGGAINSRQAQKRTREATSTPEISLEAEPIELVETAGDEIAAAACESLEPVVVDLTHNDSAAAADERRRPRRNARRLPQDHADSCVVSSDDEELSRDRDVYVTTHTPRNARDEGATGLR
B5: the Kd was found to be 9.4 µM in experiment [1] and 69 µM in experiment [2].

B6: RNF4 1–125 (RNF4-SIM domain, wt), P78317 SIM3mut (protein)
chain: MSTRKRRGGAINSRQAQKRTREATSTPEISLEAEPIELVETAGDEIVDLTCESLEPVVAAAAHNDSVVIVDERRRPRRNARRLPQDHADSCVVSSDDEELSRDRDVYVTTHTPRNARDEGATGLR
On to B6, for which the Kd in experiment [1] turned out to be 2.2 µM; in experiment [2], 91 µM; in the experiment with linear tri-SUMO, P61956, 29 µM.

B7: RNF4 1–125 (RNF4-SIM domain, wt), P78317 SIM1/3mut (protein)
chain: MSTRKRRGGAINSRQAQKRTREATSTPEISLEAEPAAAAETAGDEIVDLTCESLEPVVAAAAHNDSVVIVDERRRPRRNARRLPQDHADSCVVSSDDEELSRDRDVYVTTHTPRNARDEGATGLR
Consider B7, for which the dissociation constant Kd in experiment [1] turned out to be 2.4 µM; in experiment [2] it was 52 µM.

B8: RNF4 1–125 (RNF4-SIM domain, wt), P78317 SIM1/4mut (protein)
chain: MSTRKRRGGAINSRQAQKRTREATSTPEISLEAEPAAAAETAGDEIVDLTCESLEPVVVDLTHNDSAAAADERRRPRRNARRLPQDHADSCVVSSDDEELSRDRDVYVTTHTPRNARDEGATGLR
Molecule B8 showed a Kd in experiment [1] of 1.3 µM.

B9: RNF4 1–125 (RNF4-SIM domain, wt), P78317 SIM2/3mut (protein)
chain: MSTRKRRGGAINSRQAQKRTREATSTPEISLEAEPIELVETAGDEIAAAACESLEPVVAAAAHNDSVVIVDERRRPRRNARRLPQDHADSCVVSSDDEELSRDRDVYVTTHTPRNARDEGATGLR
For the molecule B9, the figures for the Kd in experiment [1] and in experiment [2] were 48 µM and 110 µM, respectively.

These data come from publication PMC3901395, “Multivalent interactions of the SUMO-interaction motifs in RING finger protein 4 determine the specificity for chains of the SUMO” (Biochemical Journal, 2013).
